PMC10083542

What was measured:
Assay in all cases: EMSA
[1] = tested on: T1, Dcp2 1-300 (Saccharomyces cerevisiae); conditions: EMSA: 10 nM Alexa Fluor 647 RPL41A RNA, 300 mM KOAc, 10 mM MES pH 7 or 5.8, 5 mM BME; temperature not given in material
T1 sequence: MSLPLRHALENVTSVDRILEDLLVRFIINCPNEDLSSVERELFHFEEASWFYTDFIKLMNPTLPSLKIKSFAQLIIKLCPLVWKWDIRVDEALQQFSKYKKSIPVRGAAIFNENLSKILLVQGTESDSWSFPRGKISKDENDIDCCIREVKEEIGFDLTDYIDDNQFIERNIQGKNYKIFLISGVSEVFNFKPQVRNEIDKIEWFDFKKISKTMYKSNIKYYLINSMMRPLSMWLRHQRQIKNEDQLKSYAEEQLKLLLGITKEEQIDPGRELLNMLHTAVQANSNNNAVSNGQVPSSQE

[2] = tested on: T2, Dcp2 (Saccharomyces cerevisiae); conditions: EMSA: 10 nM Alexa Fluor 647 RPL41A RNA, 300 mM KOAc, 10 mM MES pH 7 or 5.8, 5 mM BME, temperature not given in material
T2 sequence: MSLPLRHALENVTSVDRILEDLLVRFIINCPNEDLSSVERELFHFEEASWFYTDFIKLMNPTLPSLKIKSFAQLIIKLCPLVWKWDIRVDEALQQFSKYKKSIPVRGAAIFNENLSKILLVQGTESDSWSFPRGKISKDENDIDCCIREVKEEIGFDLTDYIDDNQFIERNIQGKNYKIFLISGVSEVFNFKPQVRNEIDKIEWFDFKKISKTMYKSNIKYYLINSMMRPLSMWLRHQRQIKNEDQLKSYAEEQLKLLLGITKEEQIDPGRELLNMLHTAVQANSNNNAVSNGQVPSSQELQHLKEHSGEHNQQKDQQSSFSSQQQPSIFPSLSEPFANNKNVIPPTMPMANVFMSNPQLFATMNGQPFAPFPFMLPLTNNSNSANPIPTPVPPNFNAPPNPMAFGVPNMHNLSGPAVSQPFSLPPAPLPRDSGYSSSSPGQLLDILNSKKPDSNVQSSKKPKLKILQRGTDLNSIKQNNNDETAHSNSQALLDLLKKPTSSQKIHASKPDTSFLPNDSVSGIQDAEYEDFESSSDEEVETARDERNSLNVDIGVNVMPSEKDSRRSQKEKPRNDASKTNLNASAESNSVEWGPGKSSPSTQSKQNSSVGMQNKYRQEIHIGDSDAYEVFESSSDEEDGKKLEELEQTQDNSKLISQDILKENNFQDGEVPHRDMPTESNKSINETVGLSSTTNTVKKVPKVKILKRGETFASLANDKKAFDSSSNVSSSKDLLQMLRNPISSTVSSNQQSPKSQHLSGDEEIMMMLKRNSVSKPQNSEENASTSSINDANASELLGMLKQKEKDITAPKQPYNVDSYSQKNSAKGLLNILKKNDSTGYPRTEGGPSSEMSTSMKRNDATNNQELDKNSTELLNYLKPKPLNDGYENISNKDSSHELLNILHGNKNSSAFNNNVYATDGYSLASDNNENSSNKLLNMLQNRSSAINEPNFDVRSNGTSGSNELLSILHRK

[3] = tested on: T3, Dcp1 (Saccharomyces cerevisiae); conditions: EMSA: 10 nM Alexa Fluor 647 RPL41A RNA, 300 mM KOAc, 10 mM MES pH 7 or 5.8, 5 mM BME; temperature not given in material
T3 sequence: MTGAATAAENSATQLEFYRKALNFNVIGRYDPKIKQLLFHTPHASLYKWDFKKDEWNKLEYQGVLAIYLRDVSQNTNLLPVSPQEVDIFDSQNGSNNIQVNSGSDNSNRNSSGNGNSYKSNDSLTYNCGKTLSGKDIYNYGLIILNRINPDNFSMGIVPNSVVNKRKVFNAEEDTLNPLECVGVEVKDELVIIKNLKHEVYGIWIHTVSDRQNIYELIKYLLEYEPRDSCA

[4] = tested on: Dcp2 H237A (Saccharomyces cerevisiae); conditions: pH 5.8; EMSA: 10 nM Alexa Fluor 647 RPL41A RNA, 300 mM KOAc, 10 mM MES pH 7 or 5.8, 5 mM BME; temperature not given in material

RPL41A RNA (60 nt) gave a Kd [1] of over 20 µM, a binding signal (fold tighter at pH 5.8 than at pH 7) [2] of over 16 and a Kd [3] of over 20 µM. The binding signal (fold lower affinity than wild type) [4] was 2.
